Test results from patent US20260274979A1 (Genmab, published 2026).
“And” between values parts separate entries of the source, which are not always exact repeats. Identical values can stand only once.

B1: IgG1-PD1 (antibody)
heavy: QVQLVESGGGLVQPGTSLRLSCSVSGFSLYSYNMGWVRQAPGKGLEYIGIISGGTIGHYASWAKGRFTISRDTSKTTLYLQMNSLTTEDTATYFCARAFYDDYDYNVWGPGTLVTVSSASTKGPSVFPLAPSSKSTSGGTAALGCLVKDYFPEPVTVSWNSGALTSGVHTFPAVLQSSGLYSLSSVVTVPSSSLGTQTYICNVNHKPSNTKVDKRVEPKSCDKTHTCPPCPAPEFERGPSVFLFPPKPKDTLMISRTPEVTCVVVDVSHEDPEVKFNWYVDGVEVHNAKTKPREEQYNSTYRVVSVLTVLHQDWLNGKEYKCKVSNKALPAPIEKTISKAKGQPREPQVYTLPPSREEMTKNQVSLTCLVKGFYPSDIAVEWESNGQPENNYKTTPPVLDSDGSFFLYSKLTVDKSRWQQGNVFSCSVMHEALHNHYTQKSLSLSPG
light: AIQLTQSPSSLSASVGGTVTITCQSSQSVYGNNQLSWYQQKPGQPPKLLIYQASKLETGVPSRFRGSGSGTQFTLTISSLQSEDFATYYCAGGYSSSSDTTFGGGTEVVVKRTVAAPSVFIFPPSDEQLKSGTASVVCLLNNFYPREAKVQWKVDNALQSGNSQESVTEQDSKDSTYSLSSTLTLSKADYEKHKVYACEVTHQGLSSPVTKSFNRGEC
notes: also called IgG1-PDI; copies: 2 + 2
B2: biotinylated recombinant human PD-L2 (ligand, UniProt Q9BQ51 20-219, looked up)
chain: LFTVTVPKELYIIEHGSNVTLECNFDTGSHVNLGAITASLQKVENDTSPHRERATLLEEQLPLGKASFHIPQVQVRDEGQYQCIIIYGVAWDYKYLTLKVKASYRKINTHILKVPETDEVELTCQATGYPLAEVSWPNVSVPANTSHSRTPEGLYQVTSVLRLKPPPGRNFSCVFWNTHVRELTLASIDLQSQMEPRTHP
modifications: biotinylated
notes: Bought reagent; also called programmed cell death 1 ligand 2

Assays:
[1] = target: T1, human PD-1, full-length, expressed on cells (human, UniProt Q15116 25-288); experiment: competition flow cytometry: antibody titrated against 1 µg/mL biotinylated recombinant human PD-L2 on CHO-S cells transiently transfected with human PD-1; streptavidin-allophycocyanin; % of cells binding PD-L2
T1 construct: whole, on cells; also called programmed cell death protein 1; membrane-expressed human PD-1
T1 sequence (Q15116 25-288): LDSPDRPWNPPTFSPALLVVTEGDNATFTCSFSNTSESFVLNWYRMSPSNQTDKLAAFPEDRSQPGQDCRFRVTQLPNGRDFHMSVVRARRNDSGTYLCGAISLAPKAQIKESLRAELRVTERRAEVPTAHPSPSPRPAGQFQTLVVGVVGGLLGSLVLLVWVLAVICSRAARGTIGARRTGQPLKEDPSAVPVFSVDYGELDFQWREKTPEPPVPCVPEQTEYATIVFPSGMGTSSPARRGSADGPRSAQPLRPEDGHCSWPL

[2] = target: T1, human PD-1, full-length, expressed on …; experiment: cell-based or functional assay
[3] = target: complement protein C1q (from human serum) (human, UniProt P02745 23-245; P02746 28-253; P02747 29-245); experiment: flow cytometry: C1q from human serum on activated human CD8+ T cells pre-incubated with antibody, FITC anti-C1q
Chain of complement protein C1q (from human serum) (P02745 23-245, chain 1 of 3): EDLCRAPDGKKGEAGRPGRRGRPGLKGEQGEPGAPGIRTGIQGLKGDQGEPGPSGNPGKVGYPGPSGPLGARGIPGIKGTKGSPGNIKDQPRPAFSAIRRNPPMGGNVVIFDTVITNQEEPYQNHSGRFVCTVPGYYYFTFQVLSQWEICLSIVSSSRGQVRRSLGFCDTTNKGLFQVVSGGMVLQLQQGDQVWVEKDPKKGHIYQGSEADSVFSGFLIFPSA
Chain of complement protein C1q (from human serum) (P02746 28-253, chain 2 of 3): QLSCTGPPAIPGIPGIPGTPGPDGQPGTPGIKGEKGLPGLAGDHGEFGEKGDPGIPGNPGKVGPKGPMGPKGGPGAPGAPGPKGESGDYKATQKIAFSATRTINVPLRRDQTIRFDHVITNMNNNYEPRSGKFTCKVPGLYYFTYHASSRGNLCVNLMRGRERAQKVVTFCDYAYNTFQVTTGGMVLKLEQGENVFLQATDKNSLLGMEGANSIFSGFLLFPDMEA
Chain of complement protein C1q (from human serum) (P02747 29-245, chain 3 of 3): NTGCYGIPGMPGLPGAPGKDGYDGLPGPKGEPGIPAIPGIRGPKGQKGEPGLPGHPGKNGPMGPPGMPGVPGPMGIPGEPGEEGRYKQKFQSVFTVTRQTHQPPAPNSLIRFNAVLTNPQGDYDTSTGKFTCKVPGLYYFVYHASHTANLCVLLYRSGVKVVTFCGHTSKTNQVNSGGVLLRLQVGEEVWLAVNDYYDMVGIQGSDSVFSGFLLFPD

[4] = target: T1, human PD-1, full-length, expressed on …; experiment: cell-based or functional assay; remark: listed apart in the source
[5] = target: T1, human PD-1, full-length, expressed on …; experiment: flow cytometry: 1 µg/mL biotinylated recombinant human PD-L2 on CHO-S cells transiently transfected with human PD-1; streptavidin-allophycocyanin; % of cells binding PD-L2

Row | Binder | IC50 (read off the curve) [1] [µg/mL] | EC50 of PD-1/PD-L1 checkpoint blockade (luminescence, cell-based PD-1/PD-L1 blockade reporter assay) [2] | binding result [3] | Average EC50, CD8+ T-cell expansion index in the antigen-specific proliferation assay [4] | binding result [5]
1 | B1 | ~0.9 | 0.165 µg/mL and 1.12 nM | no binding (tested: antibody up to 30 µg/mL; 20% human serum) | 0.0124 µg/mL and 0.0837 nM | 
2 | B2 |  |  |  |  | binds
